According to patent publication US20140356358A1 (Amgen, published 2014):
Substitutions are numbered along the chain they refer to. Names and notes keep the numbering of the source. Blank lines part the entries; values can stand above or below the binder they belong to.

Assays:
[1] = target: T1, human neonatal Fc receptor (hFcRn) (human, UniProt P55899 24-290; P61769 21-119); assay: phage ELISA pH 7.4
T1 construct: Biotinylated in the ELISA, Octet and yeast assays; also called human FcRn; huFcRn
Experimental: (§1) Approximately 100 μL of biotinylated human FcRn at 2 μg/mL was added to the wells of MAXISORP™ plates coated with 10 μg/mL streptavidin. After washing with PBS plus 0.05% Tween 20 (PBST) five times, phage from the overnight cultures in MES buffer at pH 6.0 or pH 7.4 were added to the plates and incubated at room temperature for 1 hr. A horseradish peroxidase (HRP)-conjugated anti-M13 antibody was used to detect the binding phage, and the plates were scored by a microtiter plate reader using a wavelength in the visible range.
(§2) Binding was assessed by a quantitative enzyme-linked immunoadsorbent assay (ELISA). The ELISA scores reflect binding affinity, with higher scores meaning higher affinity. Typically, scores higher than about 3˜5 indicate binding above background. For library L5, the insertions are between the N169 and G170 according to the numbering in FIG. 2. For libraries 6A and 6B, the insertions are between L143 and T144 according to the numbering in FIG. 2.

[2] = target: T1, human neonatal Fc receptor (hFcRn); assay: phage ELISA pH 6
Experimental: as §1, §2
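Note: higher score means stronger binding and above about 3 to 5 exceeds background.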

B1: L6B isolate with insertion SEQ ID NO: 455 (other)
chain: EPKSCDKTHTCPPCPAPELLGGPSVFLFPPKPKDTLMISRTPEVTCVVVDVSHEDPEVKFNWYVDGVEVHNAKTKPREEQYNSTYRVVSVLTVLHQDWLNGKEYKCKVSNKALPAPIEKTISKAKGQPREPQVYTLPPSRDELGGCVSAATSRTCGGTKNQVSLTCLVKGFYPSDIAVEWESNGQPENNYKTTPPVLDSDGSFFLYSKLTVDKSRWQQGNVFSCSVMHEALHNHYTQKSLSLSPGK
ELISA score [1]: 0.3

B3: L5 isolate with insertion SEQ ID NO: 402 (other)
chain: EPKSCDKTHTCPPCPAPELLGGPSVFLFPPKPKDTLMISRTPEVTCVVVDVSHEDPEVKFNWYVDGVEVHNAKTKPREEQYNSTYRVVSVLTVLHQDWLNGKEYKCKVSNKALPAPIEKTISKAKGQPREPQVYTLPPSRDELTKNQVSLTCLVKGFYPSDIAVEWESNGGCELQERWCGGGQPENNYKTTPPVLDSDGSFFLYSKLTVDKSRWQQGNVFSCSVMHEALHNHYTQKSLSLSPGK
ELISA score [2]: 75.5
ELISA score [1]: 0.3

B7: L5 isolate with insertion SEQ ID NO: 436 (other)
chain: B3 chain with E173A, L174E, Q175R, E176Q, R177Y, W178Y
ELISA score [2]: 55.5
ELISA score [1]: 1.4

B14: L5 isolate with insertion SEQ ID NO: 407 (other)
chain: B3 chain with E173M, L174V, Q175P, E176F, R177S, W178M
ELISA score [1]: 0.6

B18: L5 isolate with insertion SEQ ID NO: 413 (other)
chain: B3 chain with E173M, L174T, E176Y, R177N
ELISA score [2]: 65.6
ELISA score [1]: 0.5

B19: L5 isolate with insertion SEQ ID NO: 401 (other)
chain: B3 chain with E173M, L174V, Q175P, E176F, R177S, W178M
ELISA score [1]: 0.6

B20: L5 isolate with insertion SEQ ID NO: 422 (other)
chain: B3 chain with E173Q, L174H, Q175S, E176P, R177P, W178L
ELISA score [2]: 60.3
ELISA score [1]: 0.3

B22: L5 isolate with insertion SEQ ID NO: 415 (other)
chain: B3 chain with E173Y, L174I, Q175T, E176Q, R177K, W178L
ELISA score [2]: 63.6
ELISA score [1]: 0.7

B23: L5 isolate with insertion SEQ ID NO: 398 (other)
chain: B3 chain with E173Q, Q175G, E176S, R177M, W178H
ELISA score [2]: 86.5
ELISA score [1]: 0.4

B26: L5 isolate with insertion SEQ ID NO: 399 (other)
chain: B3 chain with E173Y, L174E, Q175N, E176K, R177T, W178L
ELISA score [2]: 86.3
ELISA score [1]: 1.6

B28: L5 isolate with insertion SEQ ID NO: 404 (other)
chain: B3 chain with E173M, L174M, Q175E, E176F, R177A, W178Q
ELISA score [2]: 74.2
ELISA score [1]: 2.3

B29: L5 isolate with insertion SEQ ID NO: 409 (other)
chain: B3 chain with E173V, L174Y, Q175D, E176V, R177K, W178K
ELISA score [2]: 71.2
ELISA score [1]: 0.7

B31: L5 isolate with insertion SEQ ID NO: 421 (other)
chain: B3 chain with E173N, L174P, Q175H, E176R, R177T, W178P
ELISA score [2]: 60.9
ELISA score [1]: 0.3

B33: L5 isolate with insertion SEQ ID NO: 412 (other)
chain: B3 chain with E173M, L174Q, Q175P, E176W, R177A, W178F
ELISA score [2]: 67.4
ELISA score [1]: 0.4

B36: L5 isolate with insertion SEQ ID NO: 419 (other)
chain: B3 chain with E173Q, L174N, Q175R, E176S, R177Y
ELISA score [2]: 61
ELISA score [1]: 0.3

B37: L5 isolate with insertion SEQ ID NO: 435 (other)
chain: B3 chain with E173K, L174R, Q175E, E176N, R177P, W178Y
ELISA score [2]: 55.6
ELISA score [1]: 0.7

B39: L5 isolate with insertion SEQ ID NO: 428 (other)
chain: B3 chain with L174M, Q175E, E176N, R177A
ELISA score [2]: 58.5
ELISA score [1]: 0.5

B40: L5 isolate with insertion SEQ ID NO: 425 (other)
chain: B3 chain with E173I, L174G, Q175P, E176F, R177W
ELISA score [2]: 59.2
ELISA score [1]: 0.3

Further lines, results first:

ELISA score [2]: 95.1
ELISA score [1]: 15.1
B2: L5 isolate with insertion SEQ ID NO: 392 (other)
chain: B3 chain with E173P, L174H, Q175M, E176F, R177P

ELISA score [2]: 65.2
ELISA score [1]: 0.3
B4: L5 isolate with insertion SEQ ID NO: 414 (other)
chain: B3 chain with E173V, L174N, Q175T, E176W, R177W, W178S

ELISA score [2]: 87.3
ELISA score [1]: 1.8
B5: L5 isolate with insertion SEQ ID NO: 397 (other)
chain: B3 chain with E173P, L174F, Q175E, E176F, R177T, W178Q

ELISA score [2]: 57.7
ELISA score [1]: 0.5
B6: L5 isolate with insertion SEQ ID NO: 431 (other)
chain: B3 chain with E173N, L174E, Q175P, E176K, R177Y, W178V

ELISA score [2]: 63
ELISA score [1]: 0.5
B8: L5 isolate with insertion SEQ ID NO: 416 (other)
chain: B3 chain with L174T, Q175H, E176Y, R177T, W178Y

ELISA score [2]: 60.2
ELISA score [1]: 0.4
B9: L5 isolate with insertion SEQ ID NO: 423 (other)
chain: B3 chain with E173N, L174H, Q175E, R177T, W178F

ELISA score [1]: 0.3
B10: L5 isolate with insertion SEQ ID NO: 442 (other)
chain: B3 chain with E173N, L174V, Q175L, E176D, R177L, W178F

ELISA score [2]: 59.2
ELISA score [1]: 0.3
B11: L5 isolate with insertion SEQ ID NO: 426 (other)
chain: B3 chain with E173M, L174Q, Q175P, E176W, R177I, W178N

ELISA score [2]: 56.7
ELISA score [1]: 0.4
B12: L5 isolate with insertion SEQ ID NO: 434 (other)
chain: B3 chain with E173M, L174P, Q175Y, R177M, W178H

ELISA score [2]: 57.7
ELISA score [1]: 0.4
B13: L5 isolate with insertion SEQ ID NO: 430 (other)
chain: B3 chain with E173H, L174D, Q175P, R177P, W178F

ELISA score [2]: 55.2
ELISA score [1]: 0.2
B15: L5 isolate with insertion SEQ ID NO: 438 (other)
chain: B3 chain with E173K, L174S, Q175M, E176I, R177S, W178M

ELISA score [2]: 89.5
ELISA score [1]: 23.5
B16: L5 isolate with insertion SEQ ID NO: 395 (other)
chain: B3 chain with E173I, Q175N, E176F, R177Y, W178G

ELISA score [2]: 72
ELISA score [1]: 0.4
B17: L5 isolate with insertion SEQ ID NO: 408 (other)
chain: B3 chain with E173Q, L174K, Q175G, E176W, R177V, W178F

ELISA score [2]: 58.3
ELISA score [1]: 0.3
B21: L5 isolate with insertion SEQ ID NO: 429 (other)
chain: B3 chain with E173P, L174P, Q175W, E176P, R177E, W178R

ELISA score [2]: 62.2
ELISA score [1]: 0.3
B24: L5 isolate with insertion SEQ ID NO: 417 (other)
chain: B3 chain with E173T, L174E, E176V, R177M

ELISA score [2]: 73.4
ELISA score [1]: 0.4
B25: L5 isolate with insertion SEQ ID NO: 405 (other)
chain: B3 chain with E173Q, L174H, Q175H, E176I, R177M, W178Q

ELISA score [2]: 73.1
ELISA score [1]: 0.4
B27: L5 isolate with insertion SEQ ID NO: 406 (other)
chain: B3 chain with E173Y, L174Q, Q175H, E176H, R177M, W178E

ELISA score [2]: 57.2
ELISA score [1]: 0.7
B30: L5 isolate with insertion SEQ ID NO: 433 (other)
chain: B3 chain with L174I, Q175P, E176H, R177S, W178F

ELISA score [2]: 59.6
ELISA score [1]: 0.3
B32: L5 isolate with insertion SEQ ID NO: 424 (other)
chain: B3 chain with E173Q, L174Y, Q175P, E176R, R177K, W178L

ELISA score [2]: 68.6
ELISA score [1]: 0.6
B34: L5 isolate with insertion SEQ ID NO: 411 (other)
chain: B3 chain with E173N, L174M, Q175L, E176W, R177G, W178S

ELISA score [2]: 61.2
ELISA score [1]: 0.4
B35: L5 isolate with insertion SEQ ID NO: 418 (other)
chain: B3 chain with E173I, L174T, Q175E, E176F, R177S, W178H

ELISA score [2]: 61
ELISA score [1]: 0.5
B38: L5 isolate with insertion SEQ ID NO: 420 (other)
chain: B3 chain with E173H, L174G, Q175T, E176K, R177Q, W178F

ELISA score [2]: 92.1
ELISA score [1]: 28.4
B41: L5 isolate with insertion SEQ ID NO: 393 (other)
chain: B3 chain with E173G, L174H, Q175G, E176W, R177I, W178F

ELISA score [2]: 57.7
ELISA score [1]: 0.5
B42: L5 isolate with insertion SEQ ID NO: 432 (other)
chain: B3 chain with E173D, L174R, Q175P, E176V, R177W, W178F

ELISA score [2]: 74.8
ELISA score [1]: 0.5
B43: L5 isolate with insertion SEQ ID NO: 403 (other)
chain: B3 chain with E173P, L174A, Q175N, E176W, R177G, W178T

ELISA score [2]: 88.6
ELISA score [1]: 8.9
B44: L5 isolate with insertion SEQ ID NO: 396 (other)
chain: B3 chain with E173R, L174E, Q175P, E176H, R177P, W178F

ELISA score [1]: 0.3
B45: L5 isolate with insertion SEQ ID NO: 437 (other)
chain: B3 chain with E173N, L174V, Q175L, E176D, R177L, W178F
